# Reference: patent publication EP1100818B1 (WHITEHEAD INSTITUTE FOR BIOMEDICAL RESEARCH, dated 2013)
# Molecular target: T1, HIV-1 HXB2 envelope glycoprotein (gp41 subunit, N-helix coiled-coil) (HIV-1 (HXB2), UniProt P04578 512-856)
# Assay: cell-based or functional assay
Molecule,IC50 (nM) cell fusion [nM],IC50 (nM) viral entry [nM]
Ac-WMEWDAEINNYTSLIHSLIEESQNQQEKNEQELL-NH2 [C34 Arg^633→Ala],0.76,2.6
Ac-WMEWDREANNYTSLIHSLIEESQNQQEKNEQELL-NH2 [C34 Ile^635→Ala],0.96,4.1

# Molecular target: N36 peptide of HIV-1 gp41 (HIV-1)
# Assay: circular dichroism at 222 nm, thermal melt, 10 µM of each peptide, PBS pH 7.0
row,Molecule,Tm (apparent melting temperature of the N36/C34 complex) [°C]
1,C34 Ile^635→Ala (peptide),55
2,C34 Arg^633→Ala (peptide),65
3,C34 Trp^631→Ala (peptide),37
4,C34 Met^629→Ala (peptide),66
5,C34 Trp^628→Ala (peptide),53
6,"C34 peptide of HIV-1 gp41, wildtype",66

# Molecular target: T1, HIV-1 HXB2 envelope glycoprotein (gp41 …)
# Assay: cell-based or functional assay
# Remark: another data set of the same source
Molecule,decrease in inhibitory activity against wildtype C34 [fold],IC50 (nanomolar) cell fusion [nM],IC50 (nanomolar) virus entry [nM]
Ac-WMEADREINNYTSLIHSLIEESQNQQEKNEQELL-NH2 [C34 Trp^631→Ala],~30,–,–
Ac-WMEVDREINNYTSLIHSLIEESQNQQEKNEQELL-NH2 [C34 Trp^631→Val],–,4.5,13
Ac-WMEGDREINNYTSLIHSLIEESQNQQEKNEQELL-NH2 [C34 Trp^631→Gly],–,25,38
Ac-WMEFDREINNYTSLIHSLIEESQNQQEKNEQELL-NH2 [C34 Trp^631→Phe],–,1.6,3.6
Ac-WMEWDREANNYTSLIHSLIEESQNQQEKNEQELL-NH2 [C34 Ile^635→Ala],~2,–,–
Ac-WMELDREINNYTSLIHSLIEESQNQQEKNEQELL-NH2 [C34 Trp^631→Leu],–,3.2,5.3

# Molecular target: N36 peptide of HIV-1 gp41 (HIV-1)
# Assay: circular dichroism at 222 nm, thermal melt
row,Molecule,Tm (apparent melting temperature of the N36/C34 complex) [°C]
1,C34 Trp^631→Abu (peptide),43
2,C34 Trp^631→Nal (peptide),62
3,C34 Trp^631→Val (peptide),43
4,C34 Trp^631→Leu (peptide),50
5,C34 Trp^631→Gly (peptide),35
6,C34 Trp^631→Phe (peptide),59
